The target of assay [1] is tissue factor (TF) antigen (UniProt P13726). The experiment in a line: SPR, ProteOn XPR36; His-tagged Fab captured on anti-penta-His, TF injected; 1:1 fit; batch C (+); Set # read as 9787. For orientation: Surface plasmon resonance follows binding to a sensor surface in real time, without labels.
For assay [2] the target is unchanged. The experiment in a line: SPR as for KD; reference: wild-type D3H44 Fab; batch C (+).
Assay [3] has the same target. The experiment in a line: SPR as for KD; reference: wild-type D3H44 Fab; batch C (+); Set # read as 9787.
Assay [4] has the same target. Briefly: SPR, ProteOn XPR36; His-tagged Fab captured on anti-penta-His, TF injected; 1:1 fit; batch C (+).

A word on the Kd: it is the free concentration of one partner at which half of the binding sites on the other are occupied at equilibrium, for simple one-to-one binding. Lower therefore signals a tighter complex.

Sequence of tissue factor (TF) antigen (P13726 33-251 limits assumed): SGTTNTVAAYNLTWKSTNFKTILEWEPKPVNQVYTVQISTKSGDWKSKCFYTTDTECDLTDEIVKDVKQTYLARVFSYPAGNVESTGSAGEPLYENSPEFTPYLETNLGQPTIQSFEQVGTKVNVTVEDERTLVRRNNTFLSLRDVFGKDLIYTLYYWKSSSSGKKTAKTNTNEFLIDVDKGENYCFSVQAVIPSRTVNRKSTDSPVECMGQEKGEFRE

As to “D3H44 Fab heterodimer, H1L1 of LCCA Sets # 9794, 9796, 9797, 9792, 9789 and 9787 (H1 Q179K; L1 Q124E_T180E)”, the equilibrium dissociation constant (Kd) in assay [1] and in assay [4] was 0.11 nM throughout. The change in median KD compared to wild type, -(log(KD design)-log(KD wt)) in assay [2] and in assay [3] was 0.16 throughout.

For the origin of these results see patent US11306156.
